# Patent publication US10174359
# How the values were obtained:
# cyclin B1-cdk1 complex = cyclin B1-cdk1 complex (UniProt P14635)
# [1] = system: separase sensor, wild-type Scc1 (142-467), histone H2B localization-targeting sequence
# Chain of cyclin B1-cdk1 complex (P14635 whole entry, looked up, one chain of several): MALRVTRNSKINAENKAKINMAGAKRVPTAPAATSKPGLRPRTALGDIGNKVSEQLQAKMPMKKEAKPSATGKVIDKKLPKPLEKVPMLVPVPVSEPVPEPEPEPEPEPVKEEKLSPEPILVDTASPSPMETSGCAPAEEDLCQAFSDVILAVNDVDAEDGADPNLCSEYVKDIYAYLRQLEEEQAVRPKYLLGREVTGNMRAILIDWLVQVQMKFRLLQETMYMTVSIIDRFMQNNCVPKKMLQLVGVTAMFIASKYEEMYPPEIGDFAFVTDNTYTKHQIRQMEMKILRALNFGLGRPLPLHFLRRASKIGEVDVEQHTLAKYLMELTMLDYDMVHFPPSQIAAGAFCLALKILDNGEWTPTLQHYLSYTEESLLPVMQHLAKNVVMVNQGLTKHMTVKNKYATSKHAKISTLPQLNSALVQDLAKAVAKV
Substance,cdk1 activity (histone H1 kinase assay) (cyclin B1-cdk1 complex),kinase activity (histone H1 as a substrate) (cyclin B1-cdk1 complex),"cleavage of the sensor (immunoblot with anti-GFP antibody, FIG. 2D) [1]"
"myc-tagged mouse separase, wild-type (WT)",cdk1 activity was markedly inhibited in the separase-bound fraction,"in the separase-bound fraction, kinase activity is inhibited (separase-bound cyclin B1-cdk1)",
separase,,,The separase sensor localized in chromosome in the cells in anaphase is cleaved
